In patent US20240343803A1 one finds AUC % to COM701-hIgG1, AUC % to SRF813-hIgG1 and AUC % to parental Ab data, which are given here for one molecule.

The assay concerns the target cynomolgus monkey PVRIG on FlpinCHO-cyno PVRIG cells (cynomolgus monkey). The assay can be described thus: FACS, FlpinCHO-cyno PVRIG cells. In general terms: A flow cytometer gives signals particle by particle.

Chain of cynomolgus monkey PVRIG on FlpinCHO-cyno PVRIG cells (cynomolgus monkey) (chain, as listed by the source): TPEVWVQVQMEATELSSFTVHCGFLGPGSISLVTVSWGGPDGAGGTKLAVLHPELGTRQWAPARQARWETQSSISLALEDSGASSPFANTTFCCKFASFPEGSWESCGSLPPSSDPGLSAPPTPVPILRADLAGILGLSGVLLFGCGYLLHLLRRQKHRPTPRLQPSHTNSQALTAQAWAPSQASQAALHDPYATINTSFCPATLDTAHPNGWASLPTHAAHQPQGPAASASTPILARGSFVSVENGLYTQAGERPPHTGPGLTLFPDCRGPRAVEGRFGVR

B1: PVRIG-A105-H3a (Fc fusion, not shown: a dimerising Fc or GST)
chain: EVQLVESGGGLVQPGGSLRLSCAASGRTFDRHTMTWFRQAPGKEREFVATASRIPGDTYYVDSVKGRFTISRDNAKNSVYLQMNSLRAEDTAVYYCAATSAYSSEVDSYEKGSWYDNWGQGTMVTVSS
With B1, the AUC % to COM701-hIgG1 is 3.27%, the AUC % to SRF813-hIgG1 was found to be 4.05% and the AUC % to parental Ab is 3.74%.
